Data from patent US20140315799A1 (J DAVID GLADSTONE INSTITUTES, published 2014).

Target: T1, endogenous p75^NTR in 3T3L1 adipocytes (mouse, UniProt Q9Z0W1 32-427)
T1 construct: whole, on cells
T1 sequence (looked up): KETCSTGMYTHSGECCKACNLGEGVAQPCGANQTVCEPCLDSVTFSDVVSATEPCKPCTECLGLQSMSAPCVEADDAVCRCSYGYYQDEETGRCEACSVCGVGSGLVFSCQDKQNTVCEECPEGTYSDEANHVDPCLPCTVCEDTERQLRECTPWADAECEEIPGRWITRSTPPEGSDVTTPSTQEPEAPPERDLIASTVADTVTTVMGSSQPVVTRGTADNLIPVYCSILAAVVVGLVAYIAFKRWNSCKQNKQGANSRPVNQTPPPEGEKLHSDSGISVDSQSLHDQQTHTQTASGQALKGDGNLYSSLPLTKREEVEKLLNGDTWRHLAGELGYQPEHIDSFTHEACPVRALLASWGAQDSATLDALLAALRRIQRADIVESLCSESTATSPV
Assay: endogenous co-IP from 3T3L1 adipocytes (anti-p75NTR IP, anti-Rab31 blot)
Experimental: Briefly, cell lysates were prepared in 1% Nonidet P-40 (NP-40; non-ionic detergent), 200 mM NaCl, 1 mM EDTA, and 20 mM Tris-HCl, pH 8.0. Immunoprecipitations (IPs) were performed with an anti-p75^NTR antibody and immunoblot with anti-Rab31 and anti-p75^NTR.
(C) Immunoprecipitation of p75^NTR with Rab31 and Rab5 in 3T3L1 adipocytes stimulated with insulin. Lysates were immunoprecipitated with anti-p75^NTR antibody, and western blots were developed with anti-Rab31 and anti-Rab5 antibodies.

B1: endogenous Rab31 in 3T3L1 adipocytes (enzyme, UniProt Q921E2 1-195, looked up)
chain: MMAIRELKVCLLGDTGVGKSSIVCRFVQDHFDHNISPTIGASFMTKTVPCGNELHKFLIWDTAGQERFHSLAPMYYRGSAAAVIVYDITKQDSFHTLKKWVKELKEHGPENIVMAIAGNKCDLSDIREVPLKDAKEYAESIGAIVVETSAKNAINIEELFQGISRQIPPLGPQENGNSGGIKLGNQSLQASRRCC
binding result: binds
